Here are results for 1 substance from article PMC4038614.

A value given as a limit tells only on which side of the number the result lay.

Assay [1] concerns the target Ly49H^B6 expressed on BWZ.36 cells (BWZ-Ly49H) (mouse (B6)) (UniProt Q60682). As to the kind of experiment: flow cytometry on cells; dissociation: BWZ transfectants labelled with saturating m157-Fc at 4°C, washed, incubated at 37°C for 5 to 90 min with excess anti-m157 antibody 6H121 to prevent re-binding; MFI at 0 min = 100%. In general terms: A flow cytometer gives signals particle by particle.

Assay [2] has as its target Ly49C^B6 expressed on BWZ.36 cells (BWZ-Ly49C) (mouse (B6)) (UniProt Q64329). Described as above.
For assay [3], the target named is Ly49H (B6 allele), endogenous on splenic NK cells (mouse (endogenous in splenic NK cells)) (UniProt Q60682).
In assay [4] the target is Ly49H^B6 expressed on BWZ.36 cells (BWZ-Ly49H) (mouse (B6)) (UniProt Q60682). The assay is described as follows: flow cytometry on cells; association time course: BWZ transfectants with saturating m157-Fc for 30 sec/1 min to 40 min at 4°C; MFI at 40 min = 100%.
Assay [5] deals with Ly49C^B6 expressed on BWZ.36 cells (BWZ-Ly49C) (mouse (B6)) (UniProt Q64329). The assay is described as above.

UniProt Q64329, sequence (Q64329 whole entry): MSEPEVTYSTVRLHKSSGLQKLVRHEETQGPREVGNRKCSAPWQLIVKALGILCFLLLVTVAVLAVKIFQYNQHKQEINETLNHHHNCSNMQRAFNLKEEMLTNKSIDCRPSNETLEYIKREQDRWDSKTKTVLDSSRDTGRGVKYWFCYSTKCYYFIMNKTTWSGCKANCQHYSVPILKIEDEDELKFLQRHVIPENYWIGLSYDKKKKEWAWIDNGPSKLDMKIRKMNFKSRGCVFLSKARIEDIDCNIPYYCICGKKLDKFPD

Consider “m157^G1F-Fc soluble fusion protein (Fc fusion)”, for which the percent still bound after 90 min in assay [1] was over 50%. In assay [2], this substance had a time to 50% dissociation of 20 min. In assay [3], this substance displayed an IFN-γ production of Ly49H^+,C^- B6 NK cells exposed to RMA cells expressing m157^G1F; abolished by blocking anti-Ly49H 3D10 of 15 % IFN-γ^+ and a degranulation (LAMP1^+) of Ly49H^+,C^- B6 NK cells exposed to RMA cells expressing m157^G1F; abolished by blocking anti-Ly49H 3D10 of 40 % LAMP1^+. The time to 50% of maximal binding in assay [4] worked out at 7 min. In assay [5], this substance came in with a time to 50% of maximal binding of 5 min.
